In patent US9981050B2, “Bispecific peptide conjugate and radioactive bispecific peptide imaging agent” (Institute of Nuclear Energy Research, Atomic Energy …, priority 2015, dated 2018):
Where two headings read alike, the source gives them in different places.

Experiments:
[1] = PET/CT imaging in NCI-H292 tumor bearing nude mice; type: in vivo; settings: mouse, iv, subcutaneous NCI-H292 tumor, 11 MBq via tail vein, 2 hours post-injection, PET/CT quantified by PMODE, read-out: tumor/muscle ratio (T/M ratio)
Description: In this example, the bispecific peptide conjugate (that is, ^68Ga-NOTA-RGD-GE11) tagged with a radioactive isotope prepared in Example 2 was tested and was compared with monospecific peptide conjugate ^68Ga-NOTA-GE11. The right thigh of nude mice was subcutaneously inoculated with 5×10^6 NCI-H292 tumor cells. The tumors were allowed to grow for about 4 weeks until the tumor size reached 0.5 cm diameter. Then, the animals were anesthetized with isoflorane, injected with 11 MBq ^68Ga-NOTA-RGD-GE11 or ^68Ga-NOTA-GE11 (0.1 mL) via the tail vein, and imaged for 2 hours by Positron Emission Tomography/Computed Tomography (PET/CT). The images were quantified by using PMODE Software.

[2] = molecular target: T1, integrin αV in A549 tumor cells (Homo sapiens, UniProt P05106+P06756); assay: Specific binding assay: inhibition of anti-integrin αV antibody binding to A549 tumor cells; type: cell-based; settings: various concentrations, 2 hrs, absorbance decreases with increasing concentration
T1 construct: endogenous in cells; host or cells: A549 tumor cells
T1 sequence (P06756 31-889 limits assumed): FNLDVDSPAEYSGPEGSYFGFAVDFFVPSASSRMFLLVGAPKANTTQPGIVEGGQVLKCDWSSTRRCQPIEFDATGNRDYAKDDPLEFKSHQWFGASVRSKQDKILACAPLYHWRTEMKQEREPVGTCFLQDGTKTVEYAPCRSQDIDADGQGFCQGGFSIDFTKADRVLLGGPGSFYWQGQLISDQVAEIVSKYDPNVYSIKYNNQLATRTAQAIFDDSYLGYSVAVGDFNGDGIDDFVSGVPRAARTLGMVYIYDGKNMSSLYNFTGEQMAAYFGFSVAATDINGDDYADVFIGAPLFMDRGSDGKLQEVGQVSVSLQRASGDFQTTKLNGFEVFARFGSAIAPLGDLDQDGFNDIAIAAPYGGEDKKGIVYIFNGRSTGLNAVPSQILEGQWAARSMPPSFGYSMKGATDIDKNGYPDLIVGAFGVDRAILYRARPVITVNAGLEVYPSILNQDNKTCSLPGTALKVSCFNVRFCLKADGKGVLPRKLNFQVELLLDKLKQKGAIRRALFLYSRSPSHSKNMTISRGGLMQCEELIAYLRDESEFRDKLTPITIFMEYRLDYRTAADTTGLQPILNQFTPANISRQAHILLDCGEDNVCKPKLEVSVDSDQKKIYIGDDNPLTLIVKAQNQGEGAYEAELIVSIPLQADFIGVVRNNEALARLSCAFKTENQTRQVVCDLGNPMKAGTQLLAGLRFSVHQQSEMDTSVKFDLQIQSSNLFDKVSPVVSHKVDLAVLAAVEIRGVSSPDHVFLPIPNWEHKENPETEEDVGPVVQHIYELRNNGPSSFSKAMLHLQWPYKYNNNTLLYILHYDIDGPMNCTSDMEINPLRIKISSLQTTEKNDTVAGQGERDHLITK
T1 sequence (P06756 891-1048 partner limits assumed): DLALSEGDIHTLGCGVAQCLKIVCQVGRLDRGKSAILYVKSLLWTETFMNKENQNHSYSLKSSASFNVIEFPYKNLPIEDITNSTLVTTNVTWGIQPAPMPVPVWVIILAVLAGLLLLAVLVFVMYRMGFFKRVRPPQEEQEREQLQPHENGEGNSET
T1 sequence (P05106 27-788): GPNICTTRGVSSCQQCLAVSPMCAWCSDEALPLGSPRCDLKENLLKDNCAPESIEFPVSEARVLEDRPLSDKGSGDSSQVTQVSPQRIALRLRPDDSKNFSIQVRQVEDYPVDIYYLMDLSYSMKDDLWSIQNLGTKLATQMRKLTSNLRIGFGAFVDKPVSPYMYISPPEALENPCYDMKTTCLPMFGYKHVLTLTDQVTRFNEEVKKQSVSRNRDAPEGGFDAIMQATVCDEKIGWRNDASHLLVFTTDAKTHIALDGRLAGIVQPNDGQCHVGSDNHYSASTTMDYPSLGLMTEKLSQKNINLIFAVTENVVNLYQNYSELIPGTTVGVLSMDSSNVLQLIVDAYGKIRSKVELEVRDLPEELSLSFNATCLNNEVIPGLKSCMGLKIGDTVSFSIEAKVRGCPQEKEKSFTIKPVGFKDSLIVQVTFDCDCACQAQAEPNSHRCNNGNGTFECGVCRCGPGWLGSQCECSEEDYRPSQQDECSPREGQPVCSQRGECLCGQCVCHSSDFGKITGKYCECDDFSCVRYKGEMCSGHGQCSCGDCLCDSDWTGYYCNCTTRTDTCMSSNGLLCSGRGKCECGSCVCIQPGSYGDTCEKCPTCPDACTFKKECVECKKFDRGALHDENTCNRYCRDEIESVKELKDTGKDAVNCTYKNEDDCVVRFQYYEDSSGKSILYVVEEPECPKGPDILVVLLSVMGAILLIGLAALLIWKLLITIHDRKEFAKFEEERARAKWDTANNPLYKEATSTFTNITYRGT
Description: (§1) In this example, the bispecific peptide conjugate (that is, NOTA-c(RGDyk)-cys-6-ahx-GE11) prepared in Example 1 was assayed.
(§2) A549 tumor cells were plated in a 96-well plate (5×10^4 cells/well). Various concentrations of NOTA-c(RGDyk)-cys-6-ahx-GE11 and anti-EGFR antibody or anti-integrin αV antibody were added and reacted for 2 hrs. Then, a secondary antibody and ABTS were added and reacted for 8 hrs. The antibody binding was assayed by a fluorimeter.

EGFR in A549 tumor cells = molecular target: T2, EGFR in A549 tumor cells (Homo sapiens, UniProt P00533); assay: Specific binding assay: inhibition of anti-EGFR antibody binding to A549 tumor cells; type: cell-based; settings: various concentrations, 2 hrs, absorbance decreases with increasing concentration
T2 construct: endogenous in cells; host or cells: A549 tumor cells
Description: as §1, §2

In the case of `CC[C@H](C)[C@H](NC(=O)[C@@H](NC(=O)[C@H](CC(N)=O)NC(=O)[C@H](CCC(N)=O)NC(=O)[C@@H]1CCCN1C(=O)[C@@H](NC(=O)[C@H](Cc1ccc(O)cc1)NC(=O)CNC(=O)[C@H](Cc1ccc(O)cc1)NC(=O)[C@H](Cc1c[nH]c2ccccc12)NC(=O)[C@H](Cc1c[nH]cn1)NC(=O)[C@H](Cc1ccc(O)cc1)NC(=O)CCCCCNC(=O)[C@H](CSC1CC(=O)N(CCC(=O)NCCCC[C@@H]2NC(=O)[C@@H](Cc3ccc(O)cc3)NC(=O)[C@H](CC(=O)O)NC(=O)CNC(=O)[C@H](CCCNC(=N)N)NC2=O)C1=O)NC(=O)CN1CCN(CC(=O)O)CCN(CC(=O)O)CC1)[C@@H](C)O)C(C)C)C(=O)O` (stereo partly shown) [^68Ga-NOTA-RGD-GE11, metal not drawn], the tissue to tissue ratio at 2 h ([1]; tumor / muscle, total radioactivity) is reported as 4.31.
In the case of NOTA-c(RGDyk)-cys-6-ahx-GE11, the “inhibition of the binding of the anti-integrin αV antibody to tumor cells” value [2] is reported as “can effectively inhibit the binding” and the “inhibition of the binding of the anti-EGFR antibody to tumor cells” value (EGFR in A549 tumor cells) is reported as “can effectively inhibit the binding”.
For `CC[C@H](C)[C@H](NC(=O)[C@@H](NC(=O)[C@H](CC(N)=O)NC(=O)[C@H](CCC(N)=O)NC(=O)[C@@H]1CCCN1C(=O)[C@@H](NC(=O)[C@H](Cc1ccc(O)cc1)NC(=O)CNC(=O)[C@H](Cc1ccc(O)cc1)NC(=O)[C@H](Cc1c[nH]c2ccccc12)NC(=O)[C@H](Cc1c[nH]cn1)NC(=O)[C@H](Cc1ccc(O)cc1)NC(=O)CCCCCNC(=O)[C@H](CS)NC(=O)CN1CCN(CC(=O)O)CCN(CC(=O)O)CC1)[C@@H](C)O)C(C)C)C(=O)O` [^68Ga-NOTA-GE11, metal not drawn, reference compound], the tissue to tissue ratio at 2 h ([1]; in vivo) was 1.87.
